Data taken from PMC5845983.

Experiments:
[1] = target: CR1 bimodular fragment CCP24-25 His6 (human); test: SPR; BIAcore 3000, multiple cycle; CCP24-25 amine-coupled on CM5 (1,000 RU); MBL injected at 20 µl/min in buffer with 3 mM EDTA (methods: HBS-P; legend of Figure 4: 50 mM TEA, 145 mM NaCl, 0.05% P20, pH 7.4); global 1:1 Langmuir fit; apparent KD = kd/ka
[2] = target: CR1 soluble CR1 (Homo sapiens) (UniProt P17927); test: SPR; details: cited from earlier work
[3] = target: CR1 CCP22-30 (Homo sapiens) (UniProt P17927); test: SPR; details: cited from earlier work

MBL, sequence (P11226 21-248): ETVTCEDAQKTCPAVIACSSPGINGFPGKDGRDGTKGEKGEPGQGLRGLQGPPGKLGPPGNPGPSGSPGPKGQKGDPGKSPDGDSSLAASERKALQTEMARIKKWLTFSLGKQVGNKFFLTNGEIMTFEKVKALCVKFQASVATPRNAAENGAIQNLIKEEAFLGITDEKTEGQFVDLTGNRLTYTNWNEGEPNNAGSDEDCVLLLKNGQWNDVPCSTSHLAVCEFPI

Substance	Kd [1] [nM]	koff [1] [s⁻¹]	Kd [2] [nM]	Kd [3] [nM]
Recombinant mannose-binding lectin (MBL) (from UniProt P11226 21-248) (natural protein)	0.65	0.00109		
MBL (from UniProt P11226)			0.76	0.37
